According to US5811267:

Tests used:
[1] = biological target: P-glycoprotein (product of the human MDR1 gene) (human) (UniProt P08183); test: indirect immunofluorescence on drug-resistant cell lines against drug-sensitive parental KB-3-1 cells
[2] = biological target: P-glycoprotein (product of the human MDR1 gene) (human) (UniProt P08183); test: solid phase whole-cell ELISA, hybridoma supernatant on fixed BATV.2 cells (human MDR1 transfected 3T3) against parent BA3T3 cells

**Q.** How did the fold reaction on resistant cell lines over KB-3-1 cells [1] turn out when “monoclonal antibody produced by the hybridoma cell line 15D3 (ATCC No. HB11342)” was run?
**A.** > 2 fold

**Q.** And the fold reaction on BATV.2 cells over parent BA3T3 cells [2]?
**A.** > 2 fold
